Common to all, as to assay: SEC; Superose 6 10/300 in 10 mM Tris, 100 mM NaCl, pH 8.0, after StrepTactin affinity purification; peak of the trimeric ectodomain
Experiment [1] deals with recombinant gorilla GII FV Env ectodomain variant mut2 (R356A/R369A) (simian foamy virus, gorilla (genotype II)).
The target of experiment [2] is recombinant gorilla GII FV Env ectodomain, wild type (simian foamy virus, gorilla (genotype II)).
The target in experiment [3] is recombinant gorilla GII FV Env ectodomain variant mut1 (K342A/R343A) (simian foamy virus, gorilla (genotype II)).

As to “recombinant gorilla GII FV Env ectodomain variant mut2 (R356A/R369A) (domain or fragment)”, in experiment [1], the stoichiometry N – broadly, a count of units in the complex or per binding partner – turned out to be 3.
“recombinant gorilla GII FV Env ectodomain, wild type (domain or fragment)”: the stoichiometry N in experiment [2] amounted to 3.
On to “recombinant gorilla GII FV Env ectodomain variant mut1 (K342A/R343A) (domain or fragment)”, for which, in experiment [3], the stoichiometry N was 3.

For the origin of these results see paper PMC9988990.
